Assay results taken from US20090257987A1, “Method of generating dopamine-secreting cells” (Ramot At Tel Aviv University Ltd., priority 2008, published 2009).

System: human MSCs
Test: Real-time quantitative PCR of Nurr1 and GAD67
Assay type: cell-based
Conditions: real-time PCR versus GAPDH
Experimental: Induction of differentiation: The differentiation protocol was composed of 2 steps. In step 1, cells were transferred to serum-free medium (DMEM) supplemented with 2 mM glutamine, 100 μg/ml streptomycin, 100 units/ml penicillin, 12.5 units/ml nystatin (Biological Industries), N2 supplement (Invitrogen, New Haven, Conn.) and 20 ng/ml fibroblast growth factor 2 and epidermal growth factor (both from R&D Systems, Minneapolis, Minn.) for 48-72 hours. […]
RNA isolation and cDNA synthesis: Total RNA was isolated by a commercial TriReagent (Sigma). The amount and quality of RNA was determined with the ND-1000 spectrophotometer (NanoDrop, Wilmington, Del.). […]
Real-time quantitative reverse transcription polymerase chain reaction (PCR): Real-time quantitative PCR of the desired genes was performed in an ABI Prism 7700 sequence detection system (Applied Biosystems, Foster City, Calif.) using Syber Green PCR Master Mix (Applied Biosystems) and the following primers: glyceraldehyde-3-phosphate dehydrogenase (GAPDH) sense CGACAGTCAGCCGCATCTT (SEQ ID NO: 1), GAPDH antisense […] […] For each gene, the specificity of the PCR product was assessed by verifying a single peak in the melting curve analysis. […] Quantitative calculations of the gene of interest versus GAPDH were done according to the ΔΔCT method, as instructed in the user bulletin of the ABI Prism 7700 sequence detection system (updated 10/2001).

B1: brain-derived neurotrophic factor (protein, UniProt P23560 19-247, looked up)
Neurotrophic factor BDNF …: APMKEANIRGQGGLAYPGVRTHGTLESVNGPKAGSRGLTSLADTFEHVIEELLDEDQKVRPNEENNKDADLYTSRVMLSSQVPLEPPLLFLLEEYKNYLDAANMSMRVRRHSDPARRGELSVCDSISEWVTAADKKTAVDMSGGTVTVLEKVPVSKGQLKQYFYETKCNPMGYTKEGCRGIDKRHWNSQCRTTQSYVRALTMDSKKRIGWRFIRIDTSCVCTLTIKRGR
notes: brain-derived neurotrophic factor (50 ng/ml) added to the Basic induction medium
  GAD67 expression: down regulation
Compared to untreated MSCs
  Nurr1 expression: significant upregulation
